Assay results published in US20240352113A1 (JIANGSU HENGRUI PHARMACEUTICALS, published 2024).

Columns and labels:
Assay in all cases: cell-based or functional assay
rat ANGPTL3(17-455)-His = target: T1, rat ANGPTL3(17-455)-His (rat, biotin-labeled in the ELISA and HTRF assays (sites not given))
T1 chain: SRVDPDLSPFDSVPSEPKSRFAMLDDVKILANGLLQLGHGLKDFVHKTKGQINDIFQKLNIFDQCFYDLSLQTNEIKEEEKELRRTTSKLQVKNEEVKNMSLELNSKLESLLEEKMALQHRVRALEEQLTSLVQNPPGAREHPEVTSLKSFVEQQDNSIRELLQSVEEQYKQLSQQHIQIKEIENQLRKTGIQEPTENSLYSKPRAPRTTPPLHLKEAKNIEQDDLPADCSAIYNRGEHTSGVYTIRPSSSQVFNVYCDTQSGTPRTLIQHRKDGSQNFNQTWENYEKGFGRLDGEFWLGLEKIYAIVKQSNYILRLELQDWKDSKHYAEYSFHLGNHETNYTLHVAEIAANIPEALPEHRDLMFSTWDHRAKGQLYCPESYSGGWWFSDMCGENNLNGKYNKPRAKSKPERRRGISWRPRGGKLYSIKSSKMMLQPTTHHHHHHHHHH

[1] = target: T2, mouse ANGPTL3(17-455)-His (mouse, UniProt Q9R182 17-455, biotin-labeled in the ELISA and HTRF assays (sites not given))
T2 sequence: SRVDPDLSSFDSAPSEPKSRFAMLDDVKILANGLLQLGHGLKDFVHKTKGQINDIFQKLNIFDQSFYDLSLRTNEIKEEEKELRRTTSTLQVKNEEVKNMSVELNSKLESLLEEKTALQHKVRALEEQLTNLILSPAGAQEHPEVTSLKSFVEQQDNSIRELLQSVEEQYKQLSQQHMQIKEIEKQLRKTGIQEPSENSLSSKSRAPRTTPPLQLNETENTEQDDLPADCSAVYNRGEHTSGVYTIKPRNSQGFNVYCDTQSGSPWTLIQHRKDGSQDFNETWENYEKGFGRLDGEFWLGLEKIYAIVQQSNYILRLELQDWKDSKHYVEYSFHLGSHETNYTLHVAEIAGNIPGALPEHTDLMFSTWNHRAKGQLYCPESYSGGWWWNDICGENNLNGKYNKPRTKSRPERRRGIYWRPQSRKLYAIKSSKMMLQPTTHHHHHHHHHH

[2] = target: T3, human ANGPTL3(17-170)-Flag-His (human, UniProt Q9Y5C1 17-170)
T3 sequence: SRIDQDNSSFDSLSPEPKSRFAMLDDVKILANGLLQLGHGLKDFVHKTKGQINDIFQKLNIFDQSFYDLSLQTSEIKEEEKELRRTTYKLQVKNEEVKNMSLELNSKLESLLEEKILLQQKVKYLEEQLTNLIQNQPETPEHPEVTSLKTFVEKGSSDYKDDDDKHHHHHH

[3] = target: T4, cynomolgus monkey ANGPTL3(17-460)-His (cynomolgus monkey, UniProt Q9Y5C1 17-460 (human entry), biotin-labeled in the ELISA and HTRF assays (sites not given))
T4 chain: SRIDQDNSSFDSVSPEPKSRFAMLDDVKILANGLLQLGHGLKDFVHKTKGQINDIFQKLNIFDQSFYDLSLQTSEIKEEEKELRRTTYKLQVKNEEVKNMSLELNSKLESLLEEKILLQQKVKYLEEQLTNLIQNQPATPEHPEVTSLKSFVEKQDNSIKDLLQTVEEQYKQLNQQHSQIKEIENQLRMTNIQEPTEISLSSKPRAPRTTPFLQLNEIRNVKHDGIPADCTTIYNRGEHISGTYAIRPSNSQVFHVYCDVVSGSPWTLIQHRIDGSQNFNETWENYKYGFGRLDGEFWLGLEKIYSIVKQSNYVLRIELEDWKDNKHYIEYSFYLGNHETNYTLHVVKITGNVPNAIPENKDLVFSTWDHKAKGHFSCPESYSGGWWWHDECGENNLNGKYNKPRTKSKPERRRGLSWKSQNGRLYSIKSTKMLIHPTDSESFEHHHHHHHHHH

IC50 (nM), activity in blocking the inhibition of LPL by ANGPTL3 (bovine LPL enzyme activity assay) (rat ANGPTL3(17-455)-His): 132 nM
IC50 (nM), activity in blocking the inhibition of LPL by ANGPTL3 (bovine LPL enzyme activity assay) [1]: 41.5 nM
IC50 (nM), activity in blocking the inhibition of LPL by ANGPTL3 (bovine LPL enzyme activity assay) [2]: 75.3 nM
IC50 (nM), activity in blocking the inhibition of LPL by ANGPTL3 (bovine LPL enzyme activity assay) [3]: 53.6 nM
B1: P8BG (antibody, human IgG4 S228P, kappa, V domains shown)
VH: QVQLVQSGAEVKKPGASVKVSCKASGYTFTSYDINWVRQAPGQGLEWVGLINPREDSTSYAQKFQGRVTMTRDTSTSTMYMELSSLRSEDTAVYFCARDLGSIREVLYYGMDVWGQGTTVTVSS
VL: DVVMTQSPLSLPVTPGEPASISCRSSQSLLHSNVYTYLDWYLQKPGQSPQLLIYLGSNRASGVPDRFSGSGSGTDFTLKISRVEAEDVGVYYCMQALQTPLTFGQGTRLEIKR
